In US20060286032A1, “A radiosotope-chitosan complex for treatment of prostate cancer” (priority 2003, published 2006):
Marks after values point to notes of the source that are not given here.

Experiments:
[1] = Autoradiography, complex solution versus ^166Ho(NO3)3.5H2O solution not containing chitosan, injected into the prostate gland; assay type: in vivo, rats; conditions: for Radioactive concentration, Administration site / Radioactive concentration, End region of femur / Radioactive concentration, Liver / Radioactive concentration, Spine / Radioactive concentration, Kidney / Radioactive concentration, Spleen: 25 μl (about 100 μCi)
Method: To investigate advantages of the ^166Ho-chitosan complex, autoradiography was carried out for a group administered with the complex solution and a control group administered with a ^166Ho(NO3)3.5H2O solution not containing chitosan. In the complex solution administration group, 25 μl of the complex solution was administered, which was equal to about 100 μCi. The control group was administered with a ^166Ho(NO3)3.5H2O solution not containing chitosan with the same dosage and radioactive concentration as in the complex solution administration group. This test was carried out according to the same method as in Experimental Example 1, and each test drug was administered to the prostate gland. After 0.5, 2, 6 and 24 hrs, rats were sacrificed and evaluated by autoradiography. The measured radioactive concentrations (% ID/g) in various organs after injection of the complex solution and the ^166Ho(NO3)3.5H2O solution are given in Table 2, below.

[2] = system: DU-145 carcinoma cell line (hormone-independent prostate carcinoma cell line); test: Antitumor effect in DU-145 subcutaneous tumor model, intratumoral injection; assay type: in vivo, nude mice; conditions: for Tumor volume after injection: intratumoral; for Tumor growth inhibition rate: last day of the test (2 wks), tumor volume vs control
Method: To investigate the effect of the complex on hormone-independent prostate cancer, a DU-145 carcinoma cell line (hormone-independent prostate carcinoma cell line), which is rarely produces prostate-specific antigen, was transplanted into nude mice and the antitumor effect of the complex was evaluated.
The DU-145 cells were cultured in 10% FBS (fetal bovine serum)-containing F-12K(Kaign's Modification of Ham's F-12 medium) in a 5% CO2 incubator at 37° C., and 2×10^5 cells/0.2 ml/head were subcutaneously transplanted into the lumbar portion of male 6-week nude mice. When the long axis of the tumor was about 1 cm long, the complex solution was intratumorally injected. The administration volume of the test drug was 0.2 ml. The mice were divided into four groups: a control group (no treatment); two administration groups administered with the complex solution at doses of 10 mCi and 20 mCi per 1 cm^3 tumor; and another administration group administered with a non-radioactive complex solution [Holmium-165 (^165Ho)-chitosan complex solution]. Two weeks after administration with the complex solution, the mice were histopathologically examined to evaluate the antitumor effect and toxicity to major organs of the complex.

[3] = system: AIT carcinoma (androgen-independent carcinoma cell line); test: Antitumor effect in AIT subcutaneous tumor model; assay type: in vivo, noble rats; conditions: for Tumor weight: four weeks after administration; for Tumor growth inhibition rate: four weeks, tumor weight vs control
Method: To evaluate the effect of the complex on hormone-independent prostate cancer, an AIT carcinoma (androgen-independent carcinoma cell line) was transplanted into noble rats, and the antitumor effect of the complex was examined.
An androgen-independent, prostate carcinoma cell line, AIT, which is derived from noble rats, was cultured in 10% FBS-containing DMEM at 37° under 5% CO2. The cultured carcinoma cells were suspended in sterile physiological saline at a density of 4×10^6 cells/ml, and 2×10^6 cells were subcutaneously transplanted into the lateral abdomen of male 5-week noble rats. When the long axis of the tumor was about 1 cm long (in this test, 14 days after transplantation), the rats were grouped according to the tumor mass. The kit prepared in Example 2 was used as a test drug, and was administered at the same dose as in Experimental Example 5, that is, 0.2 ml. The rats were divided into four groups: a control group (no treatment); two administration groups administered with the complex solution at 10 mCi and 20 mCi per 1 cm^3 tumor; and another administration group administered with a non-radioactive complex solution (Holmium-165 (^165Ho)-chitosan complex solution). Four weeks after administration with the complex solution, tumors were excised from the rats, and tumor growth inhibition rates were measured by weighing the tumors.

Holmium-166 (^166Ho)-Chitosan Complex [complex solution]
Radioactive concentration, Administration site ([1]; 30 min): 4149 ± 1563.2 % ID/g | Radioactive concentration, End region of femur ([1]; 30 min): 0.04 ± 0.015 % ID/g | Radioactive concentration, Liver ([1]; 30 min): 0.01 ± 0.004 % ID/g | Radioactive concentration, Spine ([1]; 30 min): 0.01 ± 0.002 % ID/g | Radioactive concentration, Administration site ([1]; 2 hrs): 3246 ± 764.0 % ID/g | Radioactive concentration, End region of femur ([1]; 2 hrs): 0.07 ± 0.013 % ID/g | Radioactive concentration, Liver ([1]; 2 hrs): 0.016 % ID/g | Radioactive concentration, Spine ([1]; 2 hrs): 0.02 ± 0.004 % ID/g | Radioactive concentration, Administration site ([1]; 6 hrs): 4815 ± 1177.4 % ID/g | Radioactive concentration, End region of femur ([1]; 6 hrs): 0.21 ± 0.101 % ID/g | Radioactive concentration, Kidney ([1]; 6 hrs): 0.02^b % ID/g | Radioactive concentration, Liver ([1]; 6 hrs): 0.04 ± 0.024 % ID/g | Radioactive concentration, Spine ([1]; 6 hrs): 0.05 ± 0.024 % ID/g | Radioactive concentration, Spleen ([1]; 6 hrs): 0.03 ± 0.027 % ID/g | Radioactive concentration, Administration site ([1]; 24 hrs): 3998 ± 705.1 % ID/g | Radioactive concentration, End region of femur ([1]; 24 hrs): 0.55 ± 0.324 % ID/g | Radioactive concentration, Kidney ([1]; 24 hrs): 0.03 ± 0.016 % ID/g | Radioactive concentration, Liver ([1]; 24 hrs): 0.04 ± 0.004 % ID/g | Radioactive concentration, Spine ([1]; 24 hrs): 0.14 ± 0.070 % ID/g | Radioactive concentration, Spleen ([1]; 24 hrs): 0.04 ± 0.010 % ID/g | Radioactivity retained in the administration site, the prostate gland ([1]; 24 hrs after being administered): ~90% | Tumor volume after injection ([2]; 10 mCi per 1 cm^3 tumor, 1 wk): 0.48 ± 0.35 cm^3 | Tumor volume after injection ([2]; 10 mCi per 1 cm^3 tumor, 2 wks): 0.32 ± 0.20* cm^3 | Tumor growth inhibition rate ([2]; 10 mCi per 1 cm^3 tumor): 95.1% | Tumor volume after injection ([2]; 20 mCi per 1 cm^3 tumor, 1 wk): 0.28 ± 0.04 cm^3 | Tumor volume after injection ([2]; 20 mCi per 1 cm^3 tumor, 2 wks): 0.09 ± 0.24* cm^3 | Tumor growth inhibition rate ([2]; 20 mCi per 1 cm^3 tumor): 98.6% | Tumor growth inhibition rate ([2]; 20 mCi per 1 cm^3 tumor, listed as Complex): 98.6% | Inhibitory activity against the tumor growth ([2]; subcutaneous tumor model): higher than 95% | Tumor weight ([3]; 10 mCi per 1 cm^3 tumor): 2.1 ± 0.78 g | Tumor growth inhibition rate ([3]; 10 mCi per 1 cm^3 tumor): 90.7% | Tumor weight ([3]; 20 mCi per 1 cm^3 tumor): 0.7 ± 0.18 g | Tumor growth inhibition rate ([3]; 20 mCi per 1 cm^3 tumor): 96.7% | Inhibitory activity against the tumor growth ([3]; subcutaneous tumor model): higher than 90%
